Results on 13 molecules are retold here after PMC10786891, “Massively parallel profiling of RNA-targeting CRISPR-Cas13d”.

First the molecules themselves.
T1: EsCas13d, nuclease-dead (Eubacterium siraeum, UniProt B0MS50, R295A;H300A;R849A;H854A)
T1 sequence: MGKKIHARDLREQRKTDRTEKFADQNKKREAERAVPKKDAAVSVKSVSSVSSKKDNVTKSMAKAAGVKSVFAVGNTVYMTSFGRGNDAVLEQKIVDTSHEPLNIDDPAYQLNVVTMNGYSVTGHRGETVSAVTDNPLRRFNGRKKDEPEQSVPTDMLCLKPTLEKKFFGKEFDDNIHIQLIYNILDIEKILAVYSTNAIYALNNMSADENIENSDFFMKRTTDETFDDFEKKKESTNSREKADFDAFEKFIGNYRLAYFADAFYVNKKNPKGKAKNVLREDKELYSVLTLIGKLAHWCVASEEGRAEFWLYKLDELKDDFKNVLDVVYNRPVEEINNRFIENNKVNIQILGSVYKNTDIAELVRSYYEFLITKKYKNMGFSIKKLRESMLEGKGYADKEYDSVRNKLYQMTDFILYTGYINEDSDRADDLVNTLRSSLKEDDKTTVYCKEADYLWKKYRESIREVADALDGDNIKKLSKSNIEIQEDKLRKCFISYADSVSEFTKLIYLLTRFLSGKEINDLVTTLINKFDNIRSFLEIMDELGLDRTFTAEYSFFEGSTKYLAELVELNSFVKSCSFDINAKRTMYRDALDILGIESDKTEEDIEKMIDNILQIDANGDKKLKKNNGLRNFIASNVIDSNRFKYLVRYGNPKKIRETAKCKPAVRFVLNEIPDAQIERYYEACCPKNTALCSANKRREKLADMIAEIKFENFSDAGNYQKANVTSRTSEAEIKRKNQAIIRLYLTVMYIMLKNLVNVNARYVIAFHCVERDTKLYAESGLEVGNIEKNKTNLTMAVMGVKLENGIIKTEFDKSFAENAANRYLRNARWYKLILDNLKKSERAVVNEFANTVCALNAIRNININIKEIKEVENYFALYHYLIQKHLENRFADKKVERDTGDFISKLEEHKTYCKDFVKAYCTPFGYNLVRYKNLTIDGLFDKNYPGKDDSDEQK

B1: target 1 U3G,U8A (mixed)
RNA 1: CACCCGUGCAAAAAUGCAGGGGUCUAAAACUGAGCGGAUAACCUCUCUAUGG
RNA 2: GGGAAUGGAUCCACAUCUACGAAUUCGUACCAUAGAGAGGUUAACCGCGCACCGAGAUCGGAAGAGCACACGU
B2: target 1 insC 3' of 20,insG 3' of 6 (mixed)
RNA 1: CACCCGUGCAAAAAUGCAGGGGUCUAAAACUGAGCGGAUAACCUCUCUAUGG
RNA 2: GGGAAUGGAUCCACAUCUACGAAUUCGUACCACUAGAGAGGUUAUCCGGCUCACCGAGAUCGGAAGAGCACACGU
B3: target 2 MT 5'PFS AAC 3'PFS CAA (mixed)
RNA 1: CACCCGUGCAAAAUUGCAGGGGUCUAAAACCUUCUCCAAAUUGUUUCAUCCU
RNA 2: GGGAAUGGAUCCACAUCUACGAAUUCAACAGGAUGAAACAAUUUGGAGAAGCAAAGAUCGGAAGAGCACACGU
B4: target 2 MT 5'PFS AAC 3'PFS CAG (mixed)
RNA 1: CACCCGUGCAAAAUUGCAGGGGUCUAAAACCUUCUCCAAAUUGUUUCAUCCU
RNA 2: GGGAAUGGAUCCACAUCUACGAAUUCAACAGGAUGAAACAAUUUGGAGAAGCAGAGAUCGGAAGAGCACACGU
B5: target 2 MT 5'PFS AGC 3'PFS CUU (mixed)
RNA 1: CACCCGUGCAAAAUUGCAGGGGUCUAAAACCUUCUCCAAAUUGUUUCAUCCU
RNA 2: GGGAAUGGAUCCACAUCUACGAAUUCAGCAGGAUGAAACAAUUUGGAGAAGCUUAGAUCGGAAGAGCACACGU
B6: target 2 MT 5'PFS AAU 3'PFS CUC (mixed)
RNA 1: CACCCGUGCAAAAUUGCAGGGGUCUAAAACCUUCUCCAAAUUGUUUCAUCCU
RNA 2: GGGAAUGGAUCCACAUCUACGAAUUCAAUAGGAUGAAACAAUUUGGAGAAGCUCAGAUCGGAAGAGCACACGU
B7: target 2 MT 5'PFS UUU 3'PFS CCU (mixed)
RNA 1: CACCCGUGCAAAAUUGCAGGGGUCUAAAACCUUCUCCAAAUUGUUUCAUCCU
RNA 2: GGGAAUGGAUCCACAUCUACGAAUUCUUUAGGAUGAAACAAUUUGGAGAAGCCUAGAUCGGAAGAGCACACGU
B8: target 2 MT 5'PFS AGC 3'PFS CUG (mixed)
RNA 1: CACCCGUGCAAAAUUGCAGGGGUCUAAAACCUUCUCCAAAUUGUUUCAUCCU
RNA 2: GGGAAUGGAUCCACAUCUACGAAUUCAGCAGGAUGAAACAAUUUGGAGAAGCUGAGAUCGGAAGAGCACACGU
B9: target 2 MT 5'PFS AAU 3'PFS CUG (mixed)
RNA 1: CACCCGUGCAAAAUUGCAGGGGUCUAAAACCUUCUCCAAAUUGUUUCAUCCU
RNA 2: GGGAAUGGAUCCACAUCUACGAAUUCAAUAGGAUGAAACAAUUUGGAGAAGCUGAGAUCGGAAGAGCACACGU
B10: target 2 MT 5'PFS AGC 3'PFS CUA (mixed)
RNA 1: CACCCGUGCAAAAUUGCAGGGGUCUAAAACCUUCUCCAAAUUGUUUCAUCCU
RNA 2: GGGAAUGGAUCCACAUCUACGAAUUCAGCAGGAUGAAACAAUUUGGAGAAGCUAAGAUCGGAAGAGCACACGU
B11: target 2 MT 5'PFS UUU 3'PFS CCA (mixed)
RNA 1: CACCCGUGCAAAAUUGCAGGGGUCUAAAACCUUCUCCAAAUUGUUUCAUCCU
RNA 2: GGGAAUGGAUCCACAUCUACGAAUUCUUUAGGAUGAAACAAUUUGGAGAAGCCAAGAUCGGAAGAGCACACGU
B12: target 2 MT 5'PFS AGC 3'PFS CUC (mixed)
RNA 1: CACCCGUGCAAAAUUGCAGGGGUCUAAAACCUUCUCCAAAUUGUUUCAUCCU
RNA 2: GGGAAUGGAUCCACAUCUACGAAUUCAGCAGGAUGAAACAAUUUGGAGAAGCUCAGAUCGGAAGAGCACACGU
B13: target 2 MT 5'PFS AAU 3'PFS CUU (mixed)
RNA 1: CACCCGUGCAAAAUUGCAGGGGUCUAAAACCUUCUCCAAAUUGUUUCAUCCU
RNA 2: GGGAAUGGAUCCACAUCUACGAAUUCAAUAGGAUGAAACAAUUUGGAGAAGCUUAGAUCGGAAGAGCACACGU

This series addresses T1, EsCas13d, nuclease-dead. In words: crRNA (strand 1, pre-loaded); Mg2+; 40 mM Tris-HCl pH 7.5, 150 mM NaCl, 6 mM MgCl2, 1 mM DTT, 0.1% Tween-20, 0.2 mg/ml BSA; 25 C; 10 min per concentration, then washed. The conditions noted are these: tags: His6-TwinStrep-SUMO cleaved; N-terminal SNAP kept (SNAP-Surface 488); label: 3' end held by stalled T7 RNA polymerase.
For the molecule B1, the dissociation constant (Kd) turned out to be 12 ± 0.6 nM.

Take B2: binding was characterised by a dissociation constant (Kd) of 7.5 ± 0.4 nM.

Molecule B3 had a Kd of approximately 7 nM.

B4 returned a dissociation constant (Kd) of 3.6 ± 0.6 nM.

B5 yielded a Kd of 11.7 ± 1.5 nM.

For the molecule B6, the Kd was found to be 7.3 ± 0.8 nM.

B7 yielded a Kd of 52 ± 15 nM.

B8 registered a dissociation constant (Kd) of 16.5 ± 3.4 nM.

For B9, binding was characterised by a dissociation constant (Kd) of 4.2 ± 0.5 nM.

B10 came in with a Kd of 8.6 ± 1.5 nM.

B11 showed a Kd of 18.1 ± 2.5 nM.

As to B12, the affinity, expressed as Kd, was 11.5 ± 2.8 nM.

Take B13: the dissociation constant Kd worked out at 9.4 ± 2 nM.
